Reference: patent US20130295010A1, “HER2 BINDING PEPTIDES LABELLED WITH A 18F - CONTAINING ORGANOSILICON COMPOUND” (priority 2010, published 2013)

Columns and labels:
[1] = tested on: target-expressing SKOV3 tumors; settings: mouse, in vivo
Procedure: In vivo studies were carried out with female CD-1 nude mice (Charles River Labs, Hopkinton, Mass.) with an age range between 6 and 15 weeks. Mice were housed in a ventilated rack with food and water ad libitum and a standard 12 hour day-night lighting cycle. For xenografts, animals were injected with 100 μl of cells in PBS. Cells were implanted subcutaneously in the right hindquarter. Implantation was performed under isoflurane anesthesia. For SKOV3, between 3×10^6 to 4×10^6 cells were implanted in each mouse. Under these conditions, useable tumors (100 to 300 μg) were obtained in 3 to 4 weeks in greater than 80% of animals injected.
Mice were given tail-vein injections of ˜1 μg of ^99mTc-labeled polypeptides (˜3 μCi/1 μg). […] Three mice were euthanized at each timepoint and tissues of interest dissected and counted on a Perkin Elmer Wallac Wizard 1480 Gamma Counter. […] Urine from cages was pooled with the bladder and also counted. The remaining tissues were counted and the sum of all tissues plus urine for each animal was summed to provide the total injected dose. The % injected dose for each organ was determined based on this total, and organs were weighed for determination of the % injected dose per gram, (% ID/g). […]
Mice were given tail-vein injections of ˜1 ug of ^99mTc-labeled polypeptides (˜10 μCi/1 μg). […] Urine from cages was pooled with the bladder and also counted. […]

[2] = mouse, in vivo, iv, 3 MBq, 1.5 h
Procedure: Following intravenous injection of 3 MBq of activity (2.5 MBq for the 2 min time point), animals were sacrificed at 2, 90, 120 and 180 min post injection and retention of radioactivity was assessed in key organs.

In the case of “Z02891 (SEQ. ID No. 2) ^18F-fluorobenzyl oxime: Z02891-ONH2 (Mal-AO linker on C-terminal cysteine) conjugated with [18F]4-fluorobenzaldehyde”, the “activity in the kidneys” value [1] is reported as 0.95±0.07 ID/organ.

In the case of “[18F]AlF-NOTA(COOH)-2-Z02891(SEQ ID No. 2) [Compound 5]”, the kidney retention [2] is reported as 70.3 % ID.
